Assay results published in patent US11884743B2, “Preparation and application of an intact recombinant antibody specific to clothianidin based on the identified variable region sequence” (Zhejiang University, priority 2020, dated 2024).

What was measured:
[1] = heterologous competitive indirect ELISA (coating antigen imidaclothiz-OVA); assay type: binding
Excerpt: In the early preparation stage of parental ascitic monoclonal antibodies, the assay sensitivity difference was compared between the homologous competitive indirect ELISA (coating antigen was clothianidin-OVA) and the heterologous competitive indirect ELISA (coating antigen was imidaclothiz-OVA). […] Therefore, in the present disclosure, the heterologous competitive indirect ELISA was used to evaluate the sensitivity and specificity of the intact recombinant antibody against clothianidin. A 96-well plate was coated with imidaclothiz-OVA as the heterologous competitive antigen; subsequently, ELISA was performed using a rabbit anti-mouse IgG-HRP as a detection antibody, tetramethylbenzidine (TMB) as a reaction substrate, and clothianidin and other neonicotinoid pesticide standards as analytes.

[2] = antibody binding kinetics by surface plasmon resonance (SPR); settings: CM7 chip, antibody coupled at pH 5.0, clothianidin 0.78-50 nM
Procedure: The CM7 chip was used in this invention, and the optimal pH for both antibodies was 5.0. The final signal values of the antibodies coupled on the chip were 38663 RU and 39854 RU, respectively. Kinetic experiments were performed to determine the affinity of both the parental ascitic monoclonal antibody and the intact recombinant antibody to clothianidin at a range of analyte concentrations ([…], and 0.78 nM).

B1: intact recombinant antibody against clothianidin: Recombinant mouse IgG1/kappa antibody, VH SEQ ID NO: 2, VL SEQ ID NO: 4, expressed in HEK293F cells (antibody, listed as Mus musculus, V domains shown)
VH: EVQLQQSGPELVKPGASVKMSCKASGYTFTNYVMHWVKQKPGQGLEWIGFFYPYIDYTKYNEMFKGKATLTSDTSSSTAYMELSGLTSEDSAVYFCARSQFFYRYDYFDYWGQGTALTVSS
VL: DVLMTQTPLSLPVSLGDQASISCRSSQNIVHSNGNTYLEWYLQKPGQSPKVLIYKVSNRFSGVPDRFSGSGSGTDFTLKINRVEAEDLGIYYCFQGSHVPFTFGSGTKLEIK
Sensitivity (IC50) [1]: 4.62 ng/mL | detection range for ELISA (IC20-IC80) [1]: 0.92 to 23.04 ng/mL | Kd [2]: 3.24 nM
